Article PMC4359974

Target: Sulfolobus solfataricus heat shock 20.1 (Sulfolobus solfataricus P2)
Experiment: SEC

stoichiometry N: 24 subunits
Substance: Sulfolobus solfataricus heat shock 20.1 (natural protein)
